The record followed here is article PMC10235760.

A word on the Kd: it is a measure of binding affinity in units of concentration. Low readings indicate a tighter complex, high ones a looser complex.

The experiment has as its target SARS-CoV-2 receptor binding domain, omicron subvariant BA5 (RBDBA5) (UniProt P0DTC2). Nature of the experiment: SPR. In general terms: In SPR one partner is held on a chip, and binding of the other changes the refractive index at the surface.
Turning to antibody 10-40 L:Q53F, the Kd was determined as 188 pM and the ratio to parent came to 1.42. Consider antibody 10-40 H:R100bL, for which the Kd amounted to 155 pM and the ratio to parent turned out to be 1.72. Take antibody 10-40 H:R100bI; H:S32H; L:Q53F: the Kd is 0.05 pM. For the substance antibody 10-40 L:D51W, the ratio to parent is 0.5.

Regarding antibody 10-40 H:G27S, the ratio to parent is 0.79. Consider antibody 10-40 H:R100bI, for which the Kd was 69.5 pM and the ratio to parent is 3.83. For antibody 10-40 H:R100bI; H:S32H, in that order: 2.05 pM and 130.

As to antibody 10-40 H:S98R, the ratio to parent was determined as 0.26.
